These results are taken from article PMC13291817.

Experiment [1] concerns the target RGH2-Exo70 domain (residues 1033-1637), purified from E. coli (barley (Hordeum vulgare)). Briefly: ITC; MicroCal PEAQ-ITC; […]; 25 °C; 20 mM HEPES pH 7.5, 150 mM NaCl, 5% glycerol; […]. (Isothermal titration calorimetry measures the heat released or taken up as one component is titrated into another.)
The target in experiment [2] is RGH2^+-Exo70 domain (residues 1033-1637), purified from E. coli (barley (Hordeum vulgare)). The experiment is described as above.

Consider “AVR-Pii^Rb, purified from E. coli (natural protein)”, for which the Kd (in general, a measure of binding affinity in units of concentration) was found to be 15 µM in experiment [1] and 3.12 µM in experiment [2].
